{"source": "patent US20140004106A1", "key": {"[1]": {"target": "28mer peptide of the CXCR5 antigen", "test": "Antigen-ELISA; PB 5 mM pH 7.00, T0"}, "[2]": {"target": "28mer peptide of the CXCR5 antigen", "test": "Antigen-ELISA; PB 5 mM pH 7.50, T0"}, "[3]": {"target": "28mer peptide of the CXCR5 antigen", "test": "Potency (Antigen ELISA); stored -20°C, initial"}, "[4]": {"target": "28mer peptide of the CXCR5 antigen", "test": "Potency (Antigen ELISA); stored +25°C, 1 month"}, "[5]": {"target": "28mer peptide of the CXCR5 antigen", "test": "Antigen-ELISA; standard run with LA_09_004_3"}, "[6]": {"target": "28mer peptide of the CXCR5 antigen", "test": "Antigen-ELISA; Glycine 10 mM pH 7, after 1 week at +40°C"}, "[7]": {"target": "28mer peptide of the CXCR5 antigen", "test": "ELISA potency (binding); 100 mg/mL, Sucrose (60) + Mannitol (15), T zero"}, "[8]": {"target": "28mer peptide of the CXCR5 antigen", "test": "ELISA potency (binding); 100 mg/mL, Sucrose (60) + NaCl (2), 7 days at 40°C"}, "[9]": {"target": "28mer peptide of the CXCR5 antigen", "test": "ELISA potency (binding); 100 mg/mL, Glycine (20) + NaCl (2), T zero"}, "[10]": {"target": "28mer peptide of the CXCR5 antigen", "test": "Antigen-ELISA; Histidine 10 mM pH 6.5, after 1 week at +40°C"}, "[11]": {"target": "28mer peptide of the CXCR5 antigen", "test": "Ag-ELISA; DS in PBS, 5°C, 3 months"}, "[12]": {"target": "28mer peptide of the CXCR5 antigen", "test": "Antigen-ELISA; Acetate 10 mM pH 5.50, T0"}, "[13]": {"target": "28mer peptide of the CXCR5 antigen", "test": "Antigen-ELISA; Citrate 10 mM pH 5.50, after mechanical stress 350 rpm 2.5 h"}, "[14]": {"target": "28mer peptide of the CXCR5 antigen", "test": "Antigen-ELISA; citrate 10 mM prototype D, T0"}, "[15]": {"target": "28mer peptide of the CXCR5 antigen", "test": "Antigen-ELISA; standard run with LA_09_29A, T0"}, "[16]": {"target": "28mer peptide of the CXCR5 antigen", "test": "Antigen-ELISA; histidine 10 mM prototype B, T0"}, "[17]": {"target": "28mer peptide of the CXCR5 antigen", "test": "Antigen-ELISA; standard run with LA_09_004_8"}, "[18]": {"target": "28mer peptide of the CXCR5 antigen", "test": "Antigen-ELISA; standard run with LA_09_004_1"}, "[19]": {"target": "28mer peptide of the CXCR5 antigen", "test": "Potency (Antigen ELISA); stored +5°C, 18 months"}, "[20]": {"target": "28mer peptide of the CXCR5 antigen", "test": "Potency (Antigen ELISA); stored -20°C, 18 months"}, "[21]": {"target": "28mer peptide of the CXCR5 antigen", "test": "Antigen-ELISA; acetate 10 mM prototype D, T0"}, "[22]": {"target": "28mer peptide of the CXCR5 antigen", "test": "ELISA potency (binding); 100 mg/mL, Trehalose (60) + NaCl (2), T zero"}, "[23]": {"target": "28mer peptide of the CXCR5 antigen", "test": "Ag-ELISA; DS in PBS, release"}, "[24]": {"target": "28mer peptide of the CXCR5 antigen", "test": "Antigen-ELISA; PBS 155 mM pH 7.50, after 1 week at +40°C"}, "[25]": {"target": "28mer peptide of the CXCR5 antigen", "test": "Antigen-ELISA; Histidine 10 mM pH 5.5, T0"}, "[26]": {"target": "28mer peptide of the CXCR5 antigen", "test": "Antigen-ELISA; standard run with LA_09_27B, T0"}, "[27]": {"target": "28mer peptide of the CXCR5 antigen", "test": "Antigen-ELISA; PBS 155 mM, amber glass type II, 24 h +40°C"}, "[28]": {"target": "28mer peptide of the CXCR5 antigen", "test": "Antigen-ELISA; standard run with LA_09_28B, T0"}, "[29]": {"target": "28mer peptide of the CXCR5 antigen", "test": "Antigen-ELISA; PBS 155 mM, 1 h purged with air, 24 h"}}}
{"binder": "Lead CXCR5 Antibody (humanized IgG4 anti-CXCR5 antibody) (antibody, V domains shown) VH: QVQLKESGPGLVAPSESLSITCTVSGFSLIDYGVNWIRQPPGKGLEWLGVIWGDGTTYYNPSLKSRLSISKDNSKSQVFLKVTSLTTDDTAMYYCARIVYWGQGTLVTVSA VL: DIVMTQAAPSVAVTPGASVSISCRSSKSLLHSSGKTYLYWFLQRPGQSPQLLIYRLSSLASGVPDRFSGSGSGTAFTLRISRVEAEDVGVYYCMQHLEYPYTFGGGTKLEIKR", "values": [{"measurement": "EC50 %", "setting": "[1]", "value": 68, "unit": "%"}, {"measurement": "EC50 %", "setting": "[2]", "value": 176, "unit": "%"}, {"measurement": "EC50 value (in comparison to reference)", "setting": "[3]", "value": 75, "unit": "%"}, {"measurement": "EC50 value (in comparison to reference)", "setting": "[4]", "value": 121, "unit": "%"}, {"measurement": "EC50 %", "setting": "[5]", "value": 100, "unit": "%"}, {"measurement": "EC50 %", "setting": "[6]", "value": 65, "unit": "%"}, {"measurement": "rel. potency [%]", "setting": "[7]", "value": 205, "unit": "%"}, {"measurement": "rel. potency [%]", "setting": "[8]", "value": 188, "unit": "%"}, {"measurement": "rel. potency [%]", "setting": "[9]", "value": 174, "unit": "%"}, {"measurement": "EC50 %", "setting": "[10]", "value": 175, "unit": "%"}, {"measurement": "EC50 %", "setting": "[11]", "value": 112, "unit": "%"}, {"measurement": "EC50 %", "setting": "[12]", "value": 180, "unit": "%"}, {"measurement": "EC50 %", "setting": "[13]", "value": 79, "unit": "%"}, {"measurement": "EC50 %", "setting": "[14]", "value": 94, "unit": "%"}, {"measurement": "EC50 %", "setting": "[15]", "value": 100, "unit": "%"}, {"measurement": "EC50 %", "setting": "[16]", "value": 118, "unit": "%"}, {"measurement": "EC50 %", "setting": "[17]", "value": 100, "unit": "%"}, {"measurement": "EC50 %", "setting": "[18]", "value": 100, "unit": "%"}, {"measurement": "EC50 value (in comparison to reference)", "setting": "[19]", "value": 119, "unit": "%"}, {"measurement": "EC50 value (in comparison to reference)", "setting": "[20]", "value": 127, "unit": "%"}, {"measurement": "EC50 %", "setting": "[21]", "value": 91, "unit": "%"}, {"measurement": "rel. potency [%]", "setting": "[22]", "value": 110, "unit": "%"}, {"measurement": "EC50 %", "setting": "[23]", "value": 100, "unit": "%"}, {"measurement": "EC50 %", "setting": "[24]", "value": 52, "unit": "%"}, {"measurement": "EC50 %", "setting": "[25]", "value": 57, "unit": "%"}, {"measurement": "EC50 %", "setting": "[26]", "value": 100, "unit": "%"}, {"measurement": "EC50 %", "setting": "[27]", "value": 90.1, "unit": "%"}, {"measurement": "EC50 %", "setting": "[28]", "value": 100, "unit": "%"}, {"measurement": "EC50 %", "setting": "[29]", "value": 84.3, "unit": "%"}]}
